{"source": "patent US10590440B2", "about": "“Process for producing a fermentation product from a lignocellulose-containing material” (CysBio ApS, priority 2014, dated 2020)", "molecules": {"B1": {"name": "SULT1A1 Rattus norvegicus: aryl sulfotransferase SULT1A1 from Rattus norvegicus (SEQ ID NO: 1), native gene, heterologously expressed (protein, listed as Rattus norvegicus)", "chain": "MEFSRPPLVHVKGIPLIKYFAETIGPLQNFTAWPDDLLISTYPKSGTTWMSEILDMIYQGGKLEKCGRAPIYARVPFLEFKCPGVPSGLETLEETPAPRLLKTHLPLSLLPQSLLDQKVKVIYIARNAKDVVVSYYNFYNMAKLHPDPGTWDSFLENFMDGEVSYGSWYQHVKEWWELRHTHPVLYLFYEDIKENPKREIKKILEFLGRSLPEETVDSIVHHTSFKKMKENCMTNYTTIPTEIMDHNVSPFMRKGTTGDWKNTFTVAQNERFDAHYAKTMTDCDFKFRCEL"}}, "system": "E. coli", "experiment": "Growth of E. coli with or without SULT1A1 in M9 with wheat straw biomass hydrolysate (Example 7, FIG. 9)", "format": "cell-based, Escherichia coli", "conditions": "1 mM IPTG", "source_text": "Here, we examine pre-treated wheat straw biomass hydrolysate in growth medium for a biotechnological relevant organism, exemplified by E. coli. Specifically, we used strains carrying plasmids expressing SULT1A1 from rat (Rattus norvegicus) and SULT1E1 from chicken (Gallus gallus domesticus) (Example 1) cloned into the expression vector pETDuet-1, and cysDNCQ from E. coli cloned into expression vector pRSFDuet-1 (Example 2) as described previously.\nCells expressing no sulfotransferase or SULT1A1 from rat were grown in M9 media with 1 mM IPTG with or without inhibitors of growth. Biomass hydrolysate was prepared by mixing 100 g biomass hydrolysate with 200 g of water for 2 h at 37° C., followed by centrifugation and filtration through a 0.2 μL-filter.", "data": [{"molecule": "B1", "values": [{"measurement": "growth rate versus strain without sulfotransferase", "setting": "M9 with 8% or 12% biomass hydrolysate", "value": "significantly higher"}, {"measurement": "growth rate versus strain without sulfotransferase", "setting": "M9 without supplements", "value": "no difference in growth rate"}]}]}
